Consider 17 molecules from US20030068675, “Position dependent recognition of GNN nucleotide triplets by zinc fingers” (published 2003).

Holding throughout (assay): EMSA
Holding throughout (settings): tags: MBP fusion

The target in one series is T1, ZFP SBS#1360 (synthetic).
T1 chain: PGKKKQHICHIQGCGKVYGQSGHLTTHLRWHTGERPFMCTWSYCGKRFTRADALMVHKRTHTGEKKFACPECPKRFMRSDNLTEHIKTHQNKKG
The method, boiled down: (§1)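 Purified ZFP was titrated against labeled double-stranded target (1 nM or lower, at least 10-fold below expected Kd) carrying the natural binding site with flanks. Binding buffer was 10 mM Tris pH 7.5, 100 mM KCl, 1 mM MgCl2, 0.1 mM ZnCl2, 5 mM DTT, 10% glycerol, 0.02% BSA, with equilibration for at least 45 min. Bound and free target were separated on a 10% polyacrylamide gel.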

The next series concerns the target T2, ZFP SBS#1353 (synthetic, UniProt P08047).
T2 chain: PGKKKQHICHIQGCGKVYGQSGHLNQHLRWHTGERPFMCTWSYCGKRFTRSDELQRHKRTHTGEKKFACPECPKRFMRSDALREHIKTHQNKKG
The method, boiled down:
as §1

For the next series, the target named is T3, ZFP SBS#1354 (synthetic, UniProt P08047).
T3 chain: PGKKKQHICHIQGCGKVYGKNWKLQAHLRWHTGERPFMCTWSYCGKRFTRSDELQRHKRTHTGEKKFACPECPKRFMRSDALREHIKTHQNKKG
A digest of the protocol:
as §1

Another series concerns the target ZFP SBS#1355 (synthetic). The method, boiled down: as §1
In the next series the target is ZFP SBS#1356 (synthetic). The method, boiled down: as §1
For another series, the target named is ZFP SBS#1330 (synthetic). A digest of the protocol: as §1
The target of the next series is T4, ZFP SBS#1334 (synthetic).
T4 chain: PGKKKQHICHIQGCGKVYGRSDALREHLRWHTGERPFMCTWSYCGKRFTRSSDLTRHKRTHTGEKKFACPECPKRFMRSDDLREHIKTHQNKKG
The method, boiled down: as §1

Another series addresses ZFP SBS#1346 (synthetic). The method, boiled down: as §1
Another series has as its target ZFP SBS#1337 (synthetic). A digest of the protocol: as §1
The target of the next series is T5, ZFP SBS#1336 (synthetic).
T5 chain: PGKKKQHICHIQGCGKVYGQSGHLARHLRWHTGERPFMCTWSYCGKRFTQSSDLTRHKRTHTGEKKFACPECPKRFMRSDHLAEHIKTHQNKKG
A digest of the protocol:
as §1

The target in the next series is T6, ZFP SBS#1363 (synthetic).
T6 chain: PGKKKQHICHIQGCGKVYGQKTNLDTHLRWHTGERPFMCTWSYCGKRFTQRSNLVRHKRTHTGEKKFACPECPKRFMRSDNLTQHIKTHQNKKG
The method, boiled down:
as §1

For a further series, the target named is ZFP SBS#1362 (synthetic). The method, boiled down:
as §1

A further series deals with T7, ZFP SBS#1361 (synthetic).
T7 chain: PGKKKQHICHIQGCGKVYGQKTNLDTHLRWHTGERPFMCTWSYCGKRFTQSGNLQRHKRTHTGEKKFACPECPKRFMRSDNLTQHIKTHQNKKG
A digest of the protocol: as §1

In the next series the target is T8, ZFP SBS#1348 (synthetic).
T8 chain: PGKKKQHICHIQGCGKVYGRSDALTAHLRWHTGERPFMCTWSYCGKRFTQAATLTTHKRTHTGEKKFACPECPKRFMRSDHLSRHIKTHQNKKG
A digest of the protocol:
as §1

A further series deals with T9, ZFP SBS#1351 (synthetic).
T9 chain: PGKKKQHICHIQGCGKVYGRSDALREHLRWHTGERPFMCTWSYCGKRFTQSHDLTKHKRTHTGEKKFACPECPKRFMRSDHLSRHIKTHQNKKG
A digest of the protocol:
as §1

The target of the next series is T10, ZFP SBS#1335 (synthetic).
T10 chain: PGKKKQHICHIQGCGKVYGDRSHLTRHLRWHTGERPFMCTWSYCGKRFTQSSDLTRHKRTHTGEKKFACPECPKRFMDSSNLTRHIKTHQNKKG
The method, boiled down: as §1

Another series has as its target T11, ZFP SBS#1339 (synthetic).
T11 chain: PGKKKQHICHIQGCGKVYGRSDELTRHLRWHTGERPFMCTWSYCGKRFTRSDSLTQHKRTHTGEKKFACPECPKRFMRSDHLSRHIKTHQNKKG
A digest of the protocol: as §1

A further series deals with T12, ZFP SBS#1340 (synthetic).
T12 chain: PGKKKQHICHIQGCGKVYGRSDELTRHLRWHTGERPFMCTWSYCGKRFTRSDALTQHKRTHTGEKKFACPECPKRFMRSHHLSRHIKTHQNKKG
A digest of the protocol:
as §1

The next series has as its target T13, ZFP SBS#1341 (synthetic).
T13 chain: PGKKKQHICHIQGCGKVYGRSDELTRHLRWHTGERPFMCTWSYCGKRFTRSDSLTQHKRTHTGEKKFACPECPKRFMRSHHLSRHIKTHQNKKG
A digest of the protocol:
as §1

Another series addresses T14, ZFP SBS#1338 (synthetic).
T14 chain: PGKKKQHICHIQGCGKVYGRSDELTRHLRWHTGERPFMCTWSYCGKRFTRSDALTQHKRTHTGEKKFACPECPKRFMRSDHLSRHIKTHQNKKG
The method, boiled down: as §1

The next series concerns the target T15, ZFP SBS#1343 (synthetic).
T15 chain: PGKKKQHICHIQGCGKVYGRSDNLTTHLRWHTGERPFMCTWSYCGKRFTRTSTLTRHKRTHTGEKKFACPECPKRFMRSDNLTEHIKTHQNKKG
A digest of the protocol:
as §1

For the next series, the target named is T16, ZFP SBS#1342 (synthetic).
T16 chain: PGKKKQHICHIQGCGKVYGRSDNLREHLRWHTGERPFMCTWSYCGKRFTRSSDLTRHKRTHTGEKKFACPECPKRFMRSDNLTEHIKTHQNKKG
The method, boiled down: as §1

A further series has as its target T17, ZFP SBS#1344 (synthetic).
T17 chain: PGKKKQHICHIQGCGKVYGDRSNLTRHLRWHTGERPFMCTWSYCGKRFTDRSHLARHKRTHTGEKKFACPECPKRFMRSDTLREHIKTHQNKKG
A digest of the protocol:
as §1

The target in the next series is ZFP SBS#1352 (synthetic). A digest of the protocol:
as §1

For another series, the target named is T18, ZFP SBS#1347 (synthetic).
T18 chain: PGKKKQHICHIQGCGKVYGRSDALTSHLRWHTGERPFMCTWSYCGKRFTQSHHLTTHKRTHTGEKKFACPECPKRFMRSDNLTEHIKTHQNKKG
A digest of the protocol:
as §1

A further series concerns the target ZFP SBS#1350 (synthetic). The method, boiled down: as §1
The target in another series is T19, ZFP SBS#1357 (synthetic).
T19 chain: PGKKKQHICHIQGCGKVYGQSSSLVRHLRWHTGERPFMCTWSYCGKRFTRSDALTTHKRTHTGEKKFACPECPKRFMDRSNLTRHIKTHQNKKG
The method, boiled down:
as §1

The next series addresses T20, ZFP SBS#1358 (synthetic).
T20 chain: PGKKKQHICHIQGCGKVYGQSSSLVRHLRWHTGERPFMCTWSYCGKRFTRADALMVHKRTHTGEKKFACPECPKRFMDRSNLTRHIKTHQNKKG
A digest of the protocol:
as §1

A further series addresses T21, ZFP SBS#1367 (synthetic).
T21 chain: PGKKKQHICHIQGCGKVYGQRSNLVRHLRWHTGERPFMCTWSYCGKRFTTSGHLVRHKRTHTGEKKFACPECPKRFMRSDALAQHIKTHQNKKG
A digest of the protocol:
as §1

Another series addresses T22, ZFP SBS#1366 (synthetic).
T22 chain: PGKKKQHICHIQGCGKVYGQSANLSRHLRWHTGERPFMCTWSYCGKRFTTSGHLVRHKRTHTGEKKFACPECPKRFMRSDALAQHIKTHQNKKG
The method, boiled down:
as §1

The target in another series is T23, ZFP SBS#1365 (synthetic).
T23 chain: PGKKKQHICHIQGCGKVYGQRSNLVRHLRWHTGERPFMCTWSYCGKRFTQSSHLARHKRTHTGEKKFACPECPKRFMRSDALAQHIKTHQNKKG
The method, boiled down: as §1

The next series has as its target T24, ZFP SBS#1364 (synthetic).
T24 chain: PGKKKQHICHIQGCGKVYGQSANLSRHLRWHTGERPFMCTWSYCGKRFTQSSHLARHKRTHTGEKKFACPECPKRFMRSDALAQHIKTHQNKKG
The method, boiled down:
as §1

ZFP SBS#1330 (synthetic), sequence (chain, as listed by the source): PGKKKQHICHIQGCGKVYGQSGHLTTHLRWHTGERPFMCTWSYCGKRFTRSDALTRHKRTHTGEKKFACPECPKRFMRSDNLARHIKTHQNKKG
ZFP SBS#1350 (synthetic), sequence (chain, as listed by the source): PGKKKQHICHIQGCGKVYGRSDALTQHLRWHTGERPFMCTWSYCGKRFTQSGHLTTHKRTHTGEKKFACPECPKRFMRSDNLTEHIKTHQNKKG
ZFP SBS#1352 (synthetic), sequence (chain, as listed by the source): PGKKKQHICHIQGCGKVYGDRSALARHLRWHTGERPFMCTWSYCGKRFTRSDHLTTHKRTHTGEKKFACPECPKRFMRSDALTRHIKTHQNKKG
ZFP SBS#1337 (synthetic), sequence (chain, as listed by the source): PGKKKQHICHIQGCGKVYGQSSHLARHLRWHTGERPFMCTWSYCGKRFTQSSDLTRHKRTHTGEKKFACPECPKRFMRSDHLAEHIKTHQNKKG
ZFP SBS#1355 (synthetic), sequence (chain, as listed by the source): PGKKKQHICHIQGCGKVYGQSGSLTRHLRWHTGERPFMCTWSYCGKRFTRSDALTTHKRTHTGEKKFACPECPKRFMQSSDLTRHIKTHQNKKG
ZFP SBS#1356 (synthetic), sequence (chain, as listed by the source): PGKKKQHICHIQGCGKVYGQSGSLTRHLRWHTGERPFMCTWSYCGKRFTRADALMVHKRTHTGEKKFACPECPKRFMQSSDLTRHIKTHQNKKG

B1: CAGTTGTGA (dsDNA)
DNA 1: CAGTTGTGA
DNA 2: TCACAACTG
One may read the Kd as the equilibrium constant for the complex coming apart. B1: the dissociation constant Kd with ZFP SBS#1360 is 41.7 nM. In other words, the double-digit nanomolar range.

B2: CTGGCGAGA (dsDNA)
DNA 1: CTGGCGAGA
DNA 2: TCTCGCCAG
For B2, the figures for the Kd with ZFP SBS#1353 and with ZFP SBS#1354 were 56.5 nM and 20.9 nM, respectively.

B3: GCTTTGGCA (dsDNA)
DNA 1: GCTTTGGCA
DNA 2: TGCCAAAGC
In the case of B3, the Kd with ZFP SBS#1355 came out at 0.172 nM; with ZFP SBS#1356 it was 0.034 nM.

B4: GAGGTGTGA (dsDNA)
DNA 1: GAGGTGTGA
DNA 2: TCACACCTC
B4 gave an equilibrium dissociation constant (Kd) with ZFP SBS#1330 of 0.175 nM.

B5: CCGGCGCTG (dsDNA)
DNA 1: CCGGCGCTG
DNA 2: CAGCGCCGG
B5: the dissociation constant (Kd) with ZFP SBS#1334 came out at 0.31 nM.

B6: GATGTGTGA (dsDNA)
DNA 1: GATGTGTGA
DNA 2: TCACACATC
As for B6, in the series with ZFP SBS#1346, the dissociation constant Kd is 0.153 nM.

B7: CGGGCTGGA (dsDNA)
DNA 1: CGGGCTGGA
DNA 2: TCCAGCCCG
With B7, the dissociation constant Kd worked out at 0.235 nM with ZFP SBS#1337 and 1.4 nM in the series with ZFP SBS#1336.

B8: AAGGAAAAA (dsDNA)
DNA 1: AAGGAAAAA
DNA 2: TTTTTCCTT
B8: the Kd with ZFP SBS#1363 was found to be 74.1 nM; in the series with ZFP SBS#1362, 0.332 nM; in the series with ZFP SBS#1361 it was 0.835 nM.

B9: GGGTCACTG (dsDNA)
DNA 1: GGGTCACTG
DNA 2: CAGTGACCC
In the case of B9, the equilibrium dissociation constant (Kd) in the series with ZFP SBS#1348 was 2.58 nM; in the series with ZFP SBS#1351, 0.234 nM.

B10: GACGCTGGC (dsDNA)
DNA 1: GACGCTGGC
DNA 2: GCCAGCGTC
Consider B10, for which binding with ZFP SBS#1335 was put at a Kd of 1.4 nM.

B11: GGGATGGCG (dsDNA)
DNA 1: GGGATGGCG
DNA 2: CGCCATCCC
Consider B11, for which the dissociation constant Kd came out at 0.569 nM with ZFP SBS#1339, 0.751 nM with ZFP SBS#1340, 4.1 nM in the series with ZFP SBS#1341 and 1.04 nM in the series with ZFP SBS#1338.

B12: CAGGCGCAG (dsDNA)
DNA 1: CAGGCGCAG
DNA 2: CTGCGCCTG
Consider B12, for which the Kd worked out at 37 nM with ZFP SBS#1343 and 0.68 nM with ZFP SBS#1342.

B13: CCGGGCGAC (dsDNA)
DNA 1: CCGGGCGAC
DNA 2: GTCGCCCGG
Turning to B13, in the series with ZFP SBS#1344, the Kd was 2.28 nM.

B14: GTGTGGGTC (dsDNA)
DNA 1: GTGTGGGTC
DNA 2: GACCCACAC
With B14, the Kd in the series with ZFP SBS#1352 stood at 0.023 nM.

B15: CAGTGAATG (dsDNA)
DNA 1: CAGTGAATG
DNA 2: CATTCACTG
For B15, the figures for the Kd in the series with ZFP SBS#1347 and with ZFP SBS#1350 were 8.23 nM and 74.1 nM, respectively.

B16: GACTTGGTA (dsDNA)
DNA 1: GACTTGGTA
DNA 2: TACCAAGTC
In the case of B16, the Kd was 0.032 nM with ZFP SBS#1357 and 0.05 nM with ZFP SBS#1358.

B17: ATGGGTGAA (dsDNA)
DNA 1: ATGGGTGAA
DNA 2: TTCACCCAT
With B17, the dissociation constant Kd came to 1.03 nM with ZFP SBS#1367, 22.6 nM in the series with ZFP SBS#1366, 0.152 nM with ZFP SBS#1365 and 1.22 nM with ZFP SBS#1364.
